Data as given in patent publication US20240141045A1 (PRECIGEN, published 2024).
Changes are numbered by the printed parent chain. Numbers in names are those of the source.

B1: Anti-PD1 (nVL1-nVH3).IgG4-TGFbRII (antibody)
heavy: QVQLVESGGGVVQPGRSLRLDCKASGITFSNSGMHWVRQAPGKGLEWVAVIWYDGSKRYYADSVKGRFTISRDNSKNTLFLQMNSLRAEDTAVYYCATNNDYWGQGTLVTVSSASTKGPSVFPLAPCSRSTSESTAALGCLVKDYFPEPVTVSWNSGALTSGVHTFPAVLQSSGLYSLSSVVTVPSSSLGTKTYTCNVDHKPSNTKVDKRVESKYGPPCPSCPAPEFLGGPSVFLFPPKPKDTLMISRTPEVTCVVVDVSQEDPEVQFNWYVDGVEVHNAKTKPREEQFNSTYRVVSVLTVLHQDWLNGKEYKCKVSNKGLPSSIEKTISKAKGQPREPQVYTLPPSQEEMTKNQVSLTCLVKGFYPSDIAVEWESNGQPENNYKTTPPVLDSDGSFFLYSRLTVDKSRWQEGNVFSCSVMHEALHNHYTQKSLSLSPGKGGGGSGGGGSIPPHVQKSVNNDMIVTDNNGAVKFPQLCKFCDVRFSTCDNQKSCMSNCSITSICEKPQEVCVAVWRKNDENITLETVCHDPKLPYHDFILEDAASPKCIMKEKKKPGETFFMCSCSSDECNDNIIFSEEYNTSNPD
light: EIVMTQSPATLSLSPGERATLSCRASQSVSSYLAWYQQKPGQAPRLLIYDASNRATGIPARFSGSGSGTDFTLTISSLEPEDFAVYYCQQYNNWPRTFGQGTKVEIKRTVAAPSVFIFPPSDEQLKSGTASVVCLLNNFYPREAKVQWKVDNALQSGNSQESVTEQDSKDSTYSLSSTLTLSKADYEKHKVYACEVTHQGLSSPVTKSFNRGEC
B2: Anti-PD1 (nVL1-nVH8).IgG4-TGFbRII (antibody)
heavy: B1 heavy with Q1E, E6Q, D21S, K23A, I27F, N31S, S32Y, K57N, R58K, F80Y
light: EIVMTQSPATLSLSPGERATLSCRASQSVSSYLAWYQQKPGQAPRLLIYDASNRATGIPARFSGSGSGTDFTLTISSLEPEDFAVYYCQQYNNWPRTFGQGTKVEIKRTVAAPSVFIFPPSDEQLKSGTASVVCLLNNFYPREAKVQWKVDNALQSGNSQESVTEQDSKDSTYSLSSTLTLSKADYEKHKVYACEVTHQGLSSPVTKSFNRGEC
B3: Anti-PD1 (nVL1-nVH7).IgG4-TGFbRII (antibody)
heavy: B1 heavy with I27F
light: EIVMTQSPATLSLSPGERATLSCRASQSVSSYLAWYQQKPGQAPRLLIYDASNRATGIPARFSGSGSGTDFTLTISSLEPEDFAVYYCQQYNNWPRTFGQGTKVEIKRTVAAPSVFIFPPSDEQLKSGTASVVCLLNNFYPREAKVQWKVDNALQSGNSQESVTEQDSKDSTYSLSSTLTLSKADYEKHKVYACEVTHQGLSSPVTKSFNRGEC
B4: Anti-PD1 (VL5-VH6).IgG4-Linker8-TGFbRII (antibody)
heavy: QVQLVESGGGVVQPGRSLRLDCKASGITFSNSGMHWVRQAPGKGLEWVAVIWYDGSKRYYADSVKGRFTISRDNSKNTLFLQMNSLRAEDTAVYYCATNDDYWGQGTLVTVSSASTKGPSVFPLAPCSRSTSESTAALGCLVKDYFPEPVTVSWNSGALTSGVHTFPAVLQSSGLYSLSSVVTVPSSSLGTKTYTCNVDHKPSNTKVDKRVESKYGPPCPSCPAPEFLGGPSVFLFPPKPKDTLMISRTPEVTCVVVDVSQEDPEVQFNWYVDGVEVHNAKTKPREEQFNSTYRVVSVLTVLHQDWLNGKEYKCKVSNKGLPSSIEKTISKAKGQPREPQVYTLPPSQEEMTKNQVSLTCLVKGFYPSDIAVEWESNGQPENNYKTTPPVLDSDGSFFLYSRLTVDKSRWQEGNVFSCSVMHEALHNHYTQKSLSLSPGKDPGSGGSVPLGSGGSNPGSIPPHVQKSVNNDMIVTDNNGAVKFPQLCKFCDVRFSTCDNQKSCMSNCSITSICEKPQEVCVAVWRKNDENITLETVCHDPKLPYHDFILEDAASPKCIMKEKKKPGETFFMCSCSSDECNDNIIFSEEYNTSNPD
light: not shown
B5: Anti-PD1 (VL5-VH6).IgG4-Linker12-TGFbRII (antibody)
heavy: QVQLVESGGGVVQPGRSLRLDCKASGITFSNSGMHWVRQAPGKGLEWVAVIWYDGSKRYYADSVKGRFTISRDNSKNTLFLQMNSLRAEDTAVYYCATNDDYWGQGTLVTVSSASTKGPSVFPLAPCSRSTSESTAALGCLVKDYFPEPVTVSWNSGALTSGVHTFPAVLQSSGLYSLSSVVTVPSSSLGTKTYTCNVDHKPSNTKVDKRVESKYGPPCPSCPAPEFLGGPSVFLFPPKPKDTLMISRTPEVTCVVVDVSQEDPEVQFNWYVDGVEVHNAKTKPREEQFNSTYRVVSVLTVLHQDWLNGKEYKCKVSNKGLPSSIEKTISKAKGQPREPQVYTLPPSQEEMTKNQVSLTCLVKGFYPSDIAVEWESNGQPENNYKTTPPVLDSDGSFFLYSRLTVDKSRWQEGNVFSCSVMHEALHNHYTQKSLSLSPGKDPVLEREDKVTTSKNPGSIPPHVQKSVNNDMIVTDNNGAVKFPQLCKFCDVRFSTCDNQKSCMSNCSITSICEKPQEVCVAVWRKNDENITLETVCHDPKLPYHDFILEDAASPKCIMKEKKKPGETFFMCSCSSDECNDNIIFSEEYNTSNPD
light: not shown
B6: Anti-PD1 (VL5-VH6).IgG4-Linker 2-TGFbRII (antibody)
heavy: QVQLVESGGGVVQPGRSLRLDCKASGITFSNSGMHWVRQAPGKGLEWVAVIWYDGSKRYYADSVKGRFTISRDNSKNTLFLQMNSLRAEDTAVYYCATNDDYWGQGTLVTVSSASTKGPSVFPLAPCSRSTSESTAALGCLVKDYFPEPVTVSWNSGALTSGVHTFPAVLQSSGLYSLSSVVTVPSSSLGTKTYTCNVDHKPSNTKVDKRVESKYGPPCPSCPAPEFLGGPSVFLFPPKPKDTLMISRTPEVTCVVVDVSQEDPEVQFNWYVDGVEVHNAKTKPREEQFNSTYRVVSVLTVLHQDWLNGKEYKCKVSNKGLPSSIEKTISKAKGQPREPQVYTLPPSQEEMTKNQVSLTCLVKGFYPSDIAVEWESNGQPENNYKTTPPVLDSDGSFFLYSRLTVDKSRWQEGNVFSCSVMHEALHNHYTQKSLSLSPGKGGGGSGGGSIPPHVQKSVNNDMIVTDNNGAVKFPQLCKFCDVRFSTCDNQKSCMSNCSITSICEKPQEVCVAVWRKNDENITLETVCHDPKLPYHDFILEDAASPKCIMKEKKKPGETFFMCSCSSDECNDNIIFSEEYNTSNPD
light: not shown
B7: Anti-PD1 (VL5-VH6).IgG4-Linker7-TGFbRII (antibody)
heavy: QVQLVESGGGVVQPGRSLRLDCKASGITFSNSGMHWVRQAPGKGLEWVAVIWYDGSKRYYADSVKGRFTISRDNSKNTLFLQMNSLRAEDTAVYYCATNDDYWGQGTLVTVSSASTKGPSVFPLAPCSRSTSESTAALGCLVKDYFPEPVTVSWNSGALTSGVHTFPAVLQSSGLYSLSSVVTVPSSSLGTKTYTCNVDHKPSNTKVDKRVESKYGPPCPSCPAPEFLGGPSVFLFPPKPKDTLMISRTPEVTCVVVDVSQEDPEVQFNWYVDGVEVHNAKTKPREEQFNSTYRVVSVLTVLHQDWLNGKEYKCKVSNKGLPSSIEKTISKAKGQPREPQVYTLPPSQEEMTKNQVSLTCLVKGFYPSDIAVEWESNGQPENNYKTTPPVLDSDGSFFLYSRLTVDKSRWQEGNVFSCSVMHEALHNHYTQKSLSLSPGKDPGSGSVPLGSGSNPGSIPPHVQKSVNNDMIVTDNNGAVKFPQLCKFCDVRFSTCDNQKSCMSNCSITSICEKPQEVCVAVWRKNDENITLETVCHDPKLPYHDFILEDAASPKCIMKEKKKPGETFFMCSCSSDECNDNIIFSEEYNTSNPD
light: not shown
B8: Anti-PD1 (VL5-VH6).IgG4-Linker10-TGFbRII (antibody)
heavy: QVQLVESGGGVVQPGRSLRLDCKASGITFSNSGMHWVRQAPGKGLEWVAVIWYDGSKRYYADSVKGRFTISRDNSKNTLFLQMNSLRAEDTAVYYCATNDDYWGQGTLVTVSSASTKGPSVFPLAPCSRSTSESTAALGCLVKDYFPEPVTVSWNSGALTSGVHTFPAVLQSSGLYSLSSVVTVPSSSLGTKTYTCNVDHKPSNTKVDKRVESKYGPPCPSCPAPEFLGGPSVFLFPPKPKDTLMISRTPEVTCVVVDVSQEDPEVQFNWYVDGVEVHNAKTKPREEQFNSTYRVVSVLTVLHQDWLNGKEYKCKVSNKGLPSSIEKTISKAKGQPREPQVYTLPPSQEEMTKNQVSLTCLVKGFYPSDIAVEWESNGQPENNYKTTPPVLDSDGSFFLYSRLTVDKSRWQEGNVFSCSVMHEALHNHYTQKSLSLSPGKDPGVLEREDVPTTSYPNPGSIPPHVQKSVNNDMIVTDNNGAVKFPQLCKFCDVRFSTCDNQKSCMSNCSITSICEKPQEVCVAVWRKNDENITLETVCHDPKLPYHDFILEDAASPKCIMKEKKKPGETFFMCSCSSDECNDNIIFSEEYNTSNPD
light: not shown
B9: Anti-PD1(VH7-VL6) scFv-TGFβRII (scFv)
chain 1: QVQLVQSGVEVKKPGASVKVSCKASGYTFTNYYMYWVRQAPGQGLEWMGGINPSNGGTNFNEKFKNRVTLTTDSSTTTAYMELKSLQFDDTAVYYCARRDYRFDMGFDYWGQGTTVTVSS
chain 2: EIVLTQSPATLSLSPGERATLSCRASKGVSTSGYSYLHWYQQKPGQAPRLLIYLASYLESGVPARFSGSGSGTDFTLTISSLEPEDFAVYYCQHSRDLPLTFGGGTKVEIK
chain 3: GGGGSGGGGSIPPHVQKSVNNDMIVTDNNGAVKFPQLCKFCDVRFSTCDNQKSCMSNCSITSICEKPQEVCVAVWRKNDENITLETVCHDPKLPYHDFILEDAASPKCIMKEKKKPGETFFMCSCSSDECNDNIIFSEEYNTSNPD
B10: Anti-PD1 (VH6-VL5) scFv-ADA2 (scFv)
chain 1: QVQLVESGGGVVQPGRSLRLDCKASGITFSNSGMHWVRQAPGKGLEWVAVIWYDGSKRYYADSVKGRFTISRDNSKNTLFLQMNSLRAEDTAVYYCATNDDYWGQGTLVTVSS
chain 2: EIVLTQSPATLSLSPGERATLSCRASQSVSSYLAWYQQKPGQAPRLLIYDASNRATGIPARFSGSGSGTDFTLTISSLEPEDFAVYYCQQSSNWPRTFGQGTKVEIK
chain 3: GGGGSGGGGSSIDETRAHLLLKEKMMRLGGRLVLNTKEELANERLMTLKIAEMKEAMRTLIFPPSMHFFQAKHLIERSQVFNILRMMPKGAALHLHDIGIVTMDWLVRNVTYRPHCHICFTPRGIMQFRFAHPTPRPSEKCSKWILLEDYRKRVQNVTEFDDSLLRNFTLVTQHPEVIYTNQNVVWSKFETIFFTISGLIHYAPVFRDYVFRSMQEFYEDNVLYMEIRARLLPVYELSGEHHDEEWSVKTYQEVAQKFVETHPEFIGIKIIYSDHRSKDVAVIAESIRMAMGLRIKFPTVVAGFDLVGHEDTGHSLHDYKEALMIPAKDGVKLPYFFHAGETDWQGTSIDRNILDALMLNTTRIGHGFALSKHPAVRTYSWKKDIPIEVCPISNQVLKLVSDLRNHPVATLMATGHPMVISSDDPAMFGAKGLSYDFYEVFMGIGGMKADLRTLKQLAMNSIKYSTLLESEKNTFMEIWKKRWDKFIADVATK
B11: Anti-PD1 (nVL1-nVH3).IgG4 (antibody, V domains shown)
VH: B10 chain 1 with D100N
VL: B10 chain 2 with L4M, S91Y, S92N
notes: IgG4
B12: Anti-PD1 (nVL1-nVH3).IgG4 (S108P) (antibody, V domains shown)
VH: B10 chain 1 with D100N
VL: B10 chain 2 with L4M, S91Y, S92N

The binders below were run against T1, TGF-β1 (UniProt P01137 279-390) (assay: cell-based or functional assay).
T1 sequence (P01137 279-390 limits assumed): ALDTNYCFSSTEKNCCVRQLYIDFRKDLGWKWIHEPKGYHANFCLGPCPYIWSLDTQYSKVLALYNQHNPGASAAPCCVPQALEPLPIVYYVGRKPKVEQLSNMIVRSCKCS

IC50, inhibition of TGF-β1 induced reporter gene activity (HEK-Blue TGF-β cells, SEAP) | Binder
0.0107 nM | B1
0.0545 nM | B2
0.0151 nM | B3

Biological target: T1, TGF-β1
Experiment: cell-based or functional assay
Remark: another data set of the same source

IC50, TGF-β1 neutralization activity (HEK-Blue TGF-β reporter cells) | Binder
0.0012 nM | B4
0.0027 nM | B5
0.0012 nM | B6
0.0011 nM | B7
0.0019 nM | B8

Each binder was assayed against T2, PD-1 Fc fusion protein (UniProt Q15116 25-167, limits assumed) (assay: SPR (Biacore 3000), PD-1 Fc immobilised on CM5 chip, fusion protein injected).
T2 construct: Antigen immobilised on the CM5 chip in all PD-1 SPR assays; also called PD-1 fused to human Fc region; PD-1-Fc antigen; not shown: human Fc region
Description: Surface plasma resonance (SPR) analysis was performed using Biacore3000, CM5 chip, an amine-coupling kit, 10×HBS-P running buffer and Glycine for regeneration (GE Healthcare). […] Dissociation was allowed to proceed followed by a pulse of 10 mM Glycine (pH 1.5) for regeneration of the chip surface.

T2 sequence (Q15116 25-167 limits assumed): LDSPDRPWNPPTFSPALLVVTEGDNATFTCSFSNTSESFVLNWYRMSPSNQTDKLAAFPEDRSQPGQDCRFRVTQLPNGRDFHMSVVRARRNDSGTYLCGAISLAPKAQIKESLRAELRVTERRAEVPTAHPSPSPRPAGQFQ

Kd | Binder
7.77 nM | B9

What follows are binders tested against T2, PD-1 Fc fusion protein (assay: SPR (Biacore 3000), recombinant PD-1 Fc immobilised on CM5 chip, fusion protein injected).
Description: Surface plasma resonance (SPR) analysis was performed using Biacore3000, CM5 chip, an amine-coupling kit, 10×HBS-P running buffer and Glycine for. […] Dissociation was allowed to proceed followed by regeneration of the chip surface.

Kd | Binder
3.46 nM | B10

Each binder was assayed against T2, PD-1 Fc fusion protein (assay: SPR (Biacore), PD1-Fc immobilised on CM5, 1:1 Langmuir model with mass transfer).
Description: PD1-Fc antigen and reference antigen was immobilized on Biacore CM5 surface. […] Kinetics data was evaluated for 1:1 model: Langmuir with mass transfer.

Kd | Binder
0.0277 nM | B1
0.321 nM | B2
0.147 nM | B3
0.0148 nM | B11
0.0141 nM | B12
